Values joined by “and” are separate entries in the source; they are usually repeats but may differ in a detail not shown here. Equal entries are not always repeated.
Molecular target: the molecule itself
Experiment: SDS-PAGE and anti-Adh1p western blot of SDS-resistant oligomers; crude extracts of T73 cells (dehydrated, grown 5 h in YPGF, or fresh with or without 5 mM glyoxal), 10% SDS-polyacrylamide gel under denaturing conditions, polyclonal anti-Adh1p

B1: alcohol dehydrogenase I (Adh1p) (enzyme, S. cerevisiae (endogenous in strain T73), UniProt P00330 1-348, looked up)
chain: MSIPETQKGVIFYESHGKLEYKDIPVPKPKANELLINVKYSGVCHTDLHAWHGDWPLPVKLPLVGGHEGAGVVVGMGENVKGWKIGDYAGIKWLNGSCMACEYCELGNESNCPHADLSGYTHDGSFQQYATADAVQAAHIPQGTDLAQVAPILCAGITVYKALKSANLMAGHWVAISGAAGGLGSLAVQYAKAMGYRVLGIDGGEGKEELFRSIGGEVFIDFTKEKDIVGAVLKATDGGAHGVINVSVSEAAIEASTRYVRANGTTVLVGMPAGAKCCSDVFNQVVKSISIVGSYVGNRADTREALDFFARGLVKSPIKVVGLSTLPEIYEKMEKGQIVGRYVVDTSK
modifications: oxidative carbonylation of the dimer, tetramer and higher bands (residues not stated)
notes: Alcohol dehydrogenase I (Adh1p) of Saccharomyces cerevisiae, subunit of approximately 37 kDa; Endogenous protein of an industrial wine strain; source: endogenous, S. cerevisiae wine strain T73 (and TTRX2), crude cell extracts
stoichiometry N: 2 and 4

Source: PMC3280929, “Engineered Trx2p industrial yeast strain protects glycolysis and fermentation proteins from oxidative carbonylation during biomass propagation” (Microbial Cell Factories, 2012)
